Data reported in US20230250158A1 (TALEM THERAPEUTICS, published 2023).
Like-named read-outs stand apart in the source and are kept apart here.

B1: 5-B6 (antibody, V domains shown)
VH: QVQLVQSGAEVKKPGSSVKVSCKASGGTFSSYAISWVRQAPGQGLEWVGGIIPMFNSASYAQKFQGKVTITADKATNTAYMELSSLRSEDTAVYYCARESSGYYYVSNWFDPWGQGTLVTVSS
VL: QSVLTQPSSVSGAPGQRVTISCTGSSSNIGAGYDVHWYQQIPGTAPRLLIYANSGRASGVPDRFSGSKSGTSASLAITGLQAEDEADYYCQSYDSSLSGVVFGGGTKLTVL
B2: 22-F7 (antibody, V domains shown)
VH: QVQLVESGGGVVQPGRSLRLSCAASGFSFTNYGMHWVRQAPGKGLEWVAVISYDGSIKYYEDSLKGRFTVSRDNSKKTLYLQMNSLRAEDTAVYYCTRERGTGIDYWGLGTLVTVSS
VL: QSALTQPASVSGYPGQSITLSCTGTKSDIGAYNYVSWYQQHPGKAPKLMVYDVSNRPSGLSNRFSGSKSDNTASLTISGLQAEDEAHYYCSSYTTSGTVVFGGGTKVTVL
notes: also called bin C
B3: 22-E8 (antibody, V domains shown)
VH: QVQLVQSGAEVKKPGSSVKVSCKASGGTFSSYAISWVRQAPGQGLEWMGGIIPIFGTTNYAQKFQGRVTITADESTSTAYMELSSLRSEDTAVYYCARDHGYYYGMDVWGQGTTVTVSS
VL: QSVLTQPSSVSAAPRQRVTLSCSGGDSNIGQNGVNWYLHVPGKAPRLVVYYDYLVSAGMSARFSGSRSGTSASLAISGLQSEDEGVYYCASWDDSLSAWVFGGGTKLTVL
B4: 27-A11 (antibody, V domains shown)
VH: QVQLVQSGAEVKKPGASVKVSCKASGYTFTSYYMHWVRQAPGQGLEWMGIIDPSGGSTSYAQKFQGRVTLTRDTSTSTVYMELSSLRSEDTAVYYCARSRDGYIDDAFDIWGQGTLVTVSS
VL: QSVLTQPPSVSAAPGQKVTISCSGSSSNIGNNYVSWYQQLPGTAPKLLIYDNNKRPSGIPDRFSGSKSGTSATLGITGLQTGDEADYYCGTWDSSLSAGVFGGGTKLTVL
B5: 22-D9 (antibody, V domains shown)
VH: QVQLVQSGAEVKKPGSSVNVSCKTSGGTFNTYSINWVRQAPGQGLEWMGEIIPIFDKPNYAQKFQGRVTITADESTSTAYMELTSLRSDDTAVYYCARGTGYYYGMDVWGQGTTVTVSS
VL: QSVLTQPPSVSGAPRQTVTISCFGSRSNIGNYPVNWYHQVPGKAPKVVVYYDDLLPSGISDRFSGYKSGTSASLTISGLRSEDEADYYCATWDDSLNVWVFGGGTKLTVL
notes: also called bin 4
B6: 22-D9 Fab (Fab, V domains shown)
VH: QVQLVQSGAEVKKPGSSVNVSCKTSGGTFNTYSINWVRQAPGQGLEWMGEIIPIFDKPNYAQKFQGRVTITADESTSTAYMELTSLRSDDTAVYYCARGTGYYYGMDVWGQGTTVTVSS
VL: QSVLTQPPSVSGAPRQTVTISCFGSRSNIGNYPVNWYHQVPGKAPKVVVYYDDLLPSGISDRFSGYKSGTSASLTISGLRSEDEADYYCATWDDSLNVWVFGGGTKLTVL
B7: 23-A11 (antibody, V domains shown)
VH: QVQLVESGGGVVQPGRSLRLSCAASGFTFSSYGMHWVRQAPGKGLEWVAVISYDGSNKYYADSVKGRFTISRDNSKNTLYLQMNSLRAEDTAVYYCAKEGELRGAFDIWGQGTMVTVSS
VL: SYVLTQPPSVSVAPGKTARITCGGDNIESKYVHWYQQKPGQAPVLVIYYDTDRPSGIPERFSGANSGNSATLTISRVEAGDEADYYCQVWDRTSGHFVFGPGTKVTVL
B8: 21-H1 (antibody, V domains shown)
VH: QVQLVESGGGVVQPGRSLRLSCAASGFTFSSYGMHWVRQAPGKGLEWVAVISYDGSNKYYADSVKGRFTISRDNSKNTLYLQMNSLRAEDTAVYYCAKEGELRGAFDIWGQGTTVTVSS
VL: DIVMTQSPLSLPVTPGEPASISCTSSQSLLHSIGYNFVDWYLQKPGQSPQLLIYSASNRASGVPDRFSGSGSGTDFTLKISRVEAEDVGVYYCMQALQRTLYTFGQGTKVESK
B9: 2-A6 (antibody, V domains shown)
VH: QVTLRESGPALVKPTQTLTLTCTFSGFSLNTRGMSVSWIRQPPGKALEWLALIDWEDDKFYRTSLMTRLTISKDIFKNQVVLTMTNVDPVDTGTYYCARTYSVGVKYFGMDVWGQGTTVTVSS
VL: SSELTQDPAVSVALGQTVRITCQGDSLRNYYASWYRQEPGQAPILLIYGGNYRPSGIPDRFSGSSSGNTASLTITGAQAEDEADYYCNSRDSSGNHVVFGGGTKLTVL
notes: also called bin S2
B10: 21-F2 (antibody, V domains shown)
VH: QVQLVQSGAEVKKPGASVTVSCKTSGYIFTNYDINWVRQAPGQGLEWVGWVNPNSGKVGYAQKFQGRVIMTRSDSESTAYMELTNLTSDDTAVYYCARGHTDFWGQGTLVTVSS
VL: QSVLTQPPSVSEAPRQRVTISCSGSSSNIGNNAVNWYQQLPGRAPKLLIYYDDLLPSGVSDRFSGSKSGTSASLAISGLQSEDEADYYCAAWDDSLNGVVFGGGTQLTVL
B11: 21-F2 optimized (antibody, V domains shown)
VH: QVQLVQSGAEVKKPGASVTVSCKTSGYIFTNYDINWVRQAPGQGLEWVGWVNPNSGKVGYAQKFQGRVIMTRSDSESTAYMELTQLTSDDTAVYYCARGHTDFWGQGTLVTVSS
VL: QSVLTQPPSVSEAPRQRVTISCSGSSSNIGNNAVNWYQQLPGRAPKLLIYYDDLLPSGVSDRFSGSKSGTSASLAISGLQSEDEADYYCAAWDDSLNGVVFGGGTQLTVL
B12: 23-H7 (antibody, V domains shown)
VH: QVQLVQSGAEVKLPGASMKVSCKASGYTFSTYYMHWVRQAPGQGPEWMGVIDPSGGTTSYAQKFHDRIAMTRDTSTSTAYLELSSLRSEDMAVYYCARGGFADAVDYWGQGTLVTVSS
VL: NFMLTQPHSVSGSPGKTVTISCTRNSGSIAGNYVQWYQQRPGSAPTTVIYEDNQRPSGVPDRFSGSIDSSSNSASLTISGLKTEDEADYYCQSYDASHLHVIFGGGTKVTVL
notes: also called bin 2
B13: 23-H7 Fab (Fab, V domains shown)
VH: QVQLVQSGAEVKLPGASMKVSCKASGYTFSTYYMHWVRQAPGQGPEWMGVIDPSGGTTSYAQKFHDRIAMTRDTSTSTAYLELSSLRSEDMAVYYCARGGFADAVDYWGQGTLVTVSS
VL: NFMLTQPHSVSGSPGKTVTISCTRNSGSIAGNYVQWYQQRPGSAPTTVIYEDNQRPSGVPDRFSGSIDSSSNSASLTISGLKTEDEADYYCQSYDASHLHVIFGGGTKVTVL
B14: 11-H1 (antibody, V domains shown)
VH: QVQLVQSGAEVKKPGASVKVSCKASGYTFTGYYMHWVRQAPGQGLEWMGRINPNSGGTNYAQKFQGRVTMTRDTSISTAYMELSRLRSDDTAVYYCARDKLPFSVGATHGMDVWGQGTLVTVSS
VL: QSVLTQPPSVSEAPRQRVTISCSGSSSNIGNNAVNWYQQLPGQAPRLLIYYDNLLPSGVSDRFSASTSGTSASLAISDLRSEDEADYYCASWDDRLDSPVFGGGTKLTVL
B15: 24-B8 (antibody, V domains shown)
VH: QVQLVQSGAEVKKPGSSVKVSCKASGGTFSNYAISWVRQAPGQGLEWMGGIIPILDTTNYAQKFQGRVTITADESTSTAYMELNSLRSEDTAVYYCVREEGFDYWGQGTLVTVSS
VL: QSVLTQPSSLSASPGASASLTCTLRSGINVGAYNIYWYQQKPGSPPQFVLRYNSDSDNQQGSGVPSRFSGSKDASANAGILLISGLQSEDEAEYYCMIWRSSAWVFGGGTKLTVL
B16: 8-A2 (antibody, V domains shown)
VH: QVQLVQSGAEVKKPGASVKVSCKASGYTFTGYYLHWVRQAPGQGLEWMGRINPNSGGTNYAQKFQGRVTMTRDTSISTAYMELSRLTSDDTAVYYCLAVAGTGGDAFDIWGQGTTVTVSS
VL: DIQMTQSPSTLSASVGDRVTITCRASQSISSWLAWYQQKPGKAPKLLIYAASSLESGVPSRFSGSGSGTDFTLTISSLQPEDFATYYCQQGHSFPLTFGGGTKVDIK

How the values were obtained:
[1] = molecular target: SARS-CoV-2 Spike protein on VSV pseudotyped virus particles (Wuhan-1 isolate Spike sequence) (SARS-CoV-2, UniProt P0DTC2 13-1273); assay: cell-based or functional assay
Wuhan-1 = assay: flow cytometry on Spike-transfected HEK293F cells, heat map
SARS-CoV-2 Spike RBD-hFc [2] = molecular target: T1, SARS-CoV-2 Spike RBD-hFc (SARS-CoV-2, UniProt P0DTC2 319-541); assay: Octet BLI; Fab as analyte over RBD-hFc on AHC sensors; steady-state analysis
SARS-CoV-2 Spike RBD-hFc [3] = molecular target: T1, SARS-CoV-2 Spike RBD-hFc; assay: Octet, Fab as analyte over RBD-hFc on AHC sensor
[4] = molecular target: SARS-CoV-2 Spike on SARS-CoV2-S CHO-K1 cells (wild-type, Wuhan-1) (SARS-CoV-2, UniProt P0DTC2 13-1273); assay: flow cytometry on SARS-CoV2-S CHO-K1 cells, anti-human IgG-PE detection
SARS-CoV-2 Spike RBD-hFc [5] = molecular target: T1, SARS-CoV-2 Spike RBD-hFc; assay: Octet BLI; Fab as analyte over RBD-hFc on AHC sensors; 1:1 kinetic fit
SARS-CoV-2 Spike S1-hFc [6] = molecular target: T2, SARS-CoV-2 Spike S1-hFc (SARS-CoV-2, UniProt P0DTC2 16-685); assay: Octet BLI; Fab as analyte over S1-hFc on AHC sensors; 1:1 kinetic fit
SARS-CoV-2 Spike RBD-hFc [7] = molecular target: T1, SARS-CoV-2 Spike RBD-hFc
SARS-CoV-2 Spike S1-hFc [8] = molecular target: T2, SARS-CoV-2 Spike S1-hFc

Binder | Pseudovirus IC50 [1] [µg/mL] | also measured
B1 | > 42 | 
B2 | 12.6 | 
B3 | 11.2 | 
B4 | 12.8 | 
B5 | 4.99 | binding result (Wuhan-1): binds
B6 |  | Kd (SARS-CoV-2 Spike RBD-hFc [2]): 163 nM; Kd (SARS-CoV-2 Spike RBD-hFc [3]): 160 nM
B7 | > 42 | 
B8 | > 42 | 
B9 | > 42 | 
B10 | 0.84 | 
B11 |  | binding result [4]: binds
B12 | 0.84 | binding result (Wuhan-1): binds
B13 |  | Kd (SARS-CoV-2 Spike RBD-hFc [5]): 13 nM; Kd (SARS-CoV-2 Spike S1-hFc [6]): 14 nM; Kd (SARS-CoV-2 Spike RBD-hFc [7]): 9 nM; Kd (SARS-CoV-2 Spike S1-hFc [8]): 6 nM
B14 | > 42 | 
B15 | 6.26 | 
B16 | > 42 | 
